This note sets out measurements from patent publication US20110250207A1 (OREGON HEALTH AND SCIENCE UNIVERSITY, published 2011).

In data set [1] the target is T1, murine factor XI (murine, UniProt Q91Y47 19-624).
T1 construct: also called murine fXI (M); recombinant murine fXI
The experiment in a line: immunoblot of recombinant proteins with 14E11 (FIG. 10A).

Data set [2] concerns the target T2, cow fXI (cattle, UniProt Q5NTB3 19-625).
T2 construct: mature; Endogenous protein immunoprecipitated from plasma; also called cattle fXI
The experiment in a line: immunoprecipitation from plasma with 14E11 beads, western blot with biotinylated 14E11. In general terms: Immunoblotting shows a protein as a band on a membrane.
Protocol: Plasma was obtained from human, cattle, horse, pig, rabbit, raccoon, tiger, baboon, cat, chicken, dog African elephant and llama subjects, and serum was obtained from anteater. Plasma from a fXI-deficient human subject was used as a negative control. Plasma or serum (500 μl) was collected into sodium citrate and mixed with 500 μl Tris-HCl. […] The beads were washed once with 1 ml Tris-HCl, then eluted with 50 μl of non-reducing SDS-sample buffer.

Data set [3] deals with fXI with Lys^83 and Gln^84 replaced with alanine, P03951.

B1: monoclonal antibody 14E11 (antibody, V domains shown)
VH: QVQLEESGPGLVAPSQSLSITCTVSGFSLTGYGIYWVRQPPGKGLEWLGMIWGDGRTDYNSALKSRLSISKDNSKSQVFLKMNSLQTDDTARYYCARDYYGSKDYWGQGTTLTVSS
VL: DIVMTQSHKFMSTSVGDRVSITCKASQDVSTAVAWYQQKPGQSPKLLIYLTSYRNTGVPDRFTGSGSGTDFTFTISSVQAEDLAVYYCQQHYKTPYSFGGGTKLERLR
notes: also called anti-murine fXI IgG 14E11; anti-fXI IgG 14E11
As to B1, the binding result in data set [1] and in data set [2] was “binds” in each case.

B2: activated factor XII (protein)
chain: IPPWEAPKEHKYKAEEHTVVLTVTGEPCHFPFQYHRQLYHKCTHKGRPGPQPWCATTPNFDQDQRWGYCLEPKKVKDHCSKHSPCQKGGTCVNMPSGPHCLCPQHLTGNHCQKEKCFEPQLLRFFHKNEIWYRTEQAAVARCQCKGPDAHCQRLASQACRTNPCLHGGRCLEVEGHRLCHCPVGYTGAFCDVDTKASCYDGRGLSYRGLARTTLSGAPCQPWASEATYRNVTAEQARNWGLGGHAFCRNPDNDIRPWCFVLNRDRLSWEYCDLAQCQTPTQAAPPTPVSPRLHVPLMPAQPAPPKPQPTTRTPPQSQTPGALPAKREQPPSLTRNGPLSCGQRLRKSLSSMTRVVGGLVALRGAHPYIAALYWGHSFCAGSLIAPCWVLTAAHCLQDRPAPEDLTVVLGQERRNHSCEPCQTLAVRSYRLHEAFSPVSYQHDLALLRLQEDADGSCALLSPYVQPVCLPSGAARPSETTLCQVAGWGHQFEGAEEYASFLQEAQVPFLSLERCSAPDVHGSSILPGMLCAGFLEGGTDACQGDSGGPLVCEDQAAERRLTLQGIISWGSGCGDRNKPGVYTDVAYYLAWIREHTVS
As to B2, in data set [3], the “rate of activation in solution relative to fXI^WT” value is on record as “about 65% of the rate of fXI^WT” and the “specific activity in a contact activation initiated clotting assay relative to fXI^WT” value is recorded as 100-150% of the specific activity of fXI^WT.
